The data set concerns the target ZmEREB92 (Zea mays, UniProt B6SIZ8 1-233). Description: EMSA; 200x unlabeled probe used as competitor; EMSA: 0.2 pmol biotin probe with ZmEREB92-His, 30 min at 28 °C, 6.5% native PAGE, chemiluminescence kit (Beyotime); buffer, salt and pH not given. The settings on record: protein: recombinant; tags: His-tag (C-terminal as stated; pET32a vector); label: biotin; blunt. Background: In EMSA bound probe runs differently from free probe, usually more slowly.

Sequence of ZmEREB92 (B6SIZ8 entry or part of it): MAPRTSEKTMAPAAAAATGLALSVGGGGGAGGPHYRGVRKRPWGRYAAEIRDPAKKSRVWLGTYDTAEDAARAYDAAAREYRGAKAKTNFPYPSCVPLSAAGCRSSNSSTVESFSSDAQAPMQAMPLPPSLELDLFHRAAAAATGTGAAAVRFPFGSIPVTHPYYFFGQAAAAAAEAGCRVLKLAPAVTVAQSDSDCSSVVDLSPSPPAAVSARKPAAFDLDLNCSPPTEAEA

B1: pAMYa2-A (dsDNA)
DNA 1: TCAAGAATTTAAGGCGGCGAAAGCCGAC
DNA 2: GTCGGCTTTCGCCGCCTTAAATTCTTGA
For the molecule B1, the binding result was “binds”.

B2: pAMYa2-C (dsDNA)
DNA 1: TCGTCGTCTCGCCGCCGCCGCCGCCGCCGCAACGGGTCT
DNA 2: AGACCCGTTGCGGCGGCGGCGGCGGCGGCGAGACGACGA
For B2, the binding result is listed as “binds”.

The record behind these values is PMC10691696, “ZmEREB92 plays a negative role in seed germination by regulating ethylene signaling and starch mobilization in maize”.
